The results in this text go back to article PMC9994480, “Infancy‐onset diabetes caused by de‐regulated AMPylation of the human endoplasmic reticulum chaperone BiP” (EMBO Molecular Medicine, 2023).

The data set concerns the molecule itself. Briefly: SEC; analytical SEC, Agilent Bio SEC-3 HPLC column, TNT buffer (25 mM Tris pH 8.0, 150 mM NaCl, 1 mM TCEP), 25°C; proteins diluted to a range of concentrations (Fig 3B) and incubated at least 1 h at room temperature; 0.3 ml/min. For orientation: Size exclusion chromatography separates by hydrodynamic size, large species first.

B1: wild-type FICD, structured luminal domain (residues 104–445) (enzyme, human, UniProt Q9BVA6 104-445, looked up)
chain: LEARAALNQALEMKRQGKREKAQKLFMHALKMDPDFVDALTEFGIFSEEDKDIIQADYLYTRALTISPYHEKALVNRDRTLPLVEEIDQRYFSIIDSKVKKVMSIPKGNSALRRVMEETYYHHIYHTVAIEGNTLTLSEIRHILETRYAVPGKSLEEQNEVIGMHAAMKYINTTLVSRIGSVTISDVLEIHRRVLGYVDPVEAGRFRTTQVLVGHHIPPHPQDVEKQMQEFVQWLNSEEAMNLHPVEFAALAHYKLVYIHPFIDGNGRTSRLLMNLILMQAGYPPITIRKEQRSDYYHVLEAANEGDVRPFIRFIAKCTETTLDTLLFATTEYSVALPEAQP
notes: human FICD, structured region, residues 104-445; The methods say His6-SUMO fusion (cleaved by Ulp1) or GST fusion (cleaved by TEV) without telling which for which protein; Purification as in Perera et al, 2019, 2021; also called WT; FICD^WT; not shown: His6-SUMO (or GST)
As to B1, the “stoichiometry N” value was 2.

B2: FICD^R371S, structured luminal domain (residues 104–445) (enzyme, human, UniProt Q9BVA6 104-445, looked up)
chain: LEARAALNQALEMKRQGKREKAQKLFMHALKMDPDFVDALTEFGIFSEEDKDIIQADYLYTRALTISPYHEKALVNRDRTLPLVEEIDQRYFSIIDSKVKKVMSIPKGNSALRRVMEETYYHHIYHTVAIEGNTLTLSEIRHILETRYAVPGKSLEEQNEVIGMHAAMKYINTTLVSRIGSVTISDVLEIHRRVLGYVDPVEAGRFRTTQVLVGHHIPPHPQDVEKQMQEFVQWLNSEEAMNLHPVEFAALAHYKLVYIHPFIDGNGSTSRLLMNLILMQAGYPPITIRKEQRSDYYHVLEAANEGDVRPFIRFIAKCTETTLDTLLFATTEYSVALPEAQP
notes: human FICD, structured region, residues 104-445, with the patients' variant p.(Arg371Ser); Variant found homozygous in patients (NM_007076.2:c.1113G>C); also called Arg371Ser mutant FICD; FICD p.(Arg371Ser); not shown: His6-SUMO (or GST)
In the case of B2, the “stoichiometry N” value amounted to 2.

As a reminder, the stoichiometry N is the number of molecules, sites or subunits per partner or assembly.
